Results on 1 molecule are retold here after WO2021136808A1 (dated 2021).

The target of the test is T1, human CTLA-4 (AA Ala37-Ser160) - Fc Tag fusion protein (AcroBiosystem, catalog no. CT4-H5255) (human, UniProt P16410 37-160).
T1 construct: range 37-160; Bought reagent, coated to the ELISA plate wells as capture reagent; also called human CTLA-4 - Fc Tag fusion protein; not shown: Fc tag
T1 sequence (looked up): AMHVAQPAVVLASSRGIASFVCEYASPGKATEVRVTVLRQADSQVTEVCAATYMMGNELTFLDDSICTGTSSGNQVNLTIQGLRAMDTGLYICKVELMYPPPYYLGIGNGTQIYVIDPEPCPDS
The experiment in a line: in-house sandwich ELISA, CTLA-4-Fc coated on plate, HHC MET in rat plasma. In general terms: ELISA stands for enzyme-linked immunosorbent assay.

B1: HHC MET (VHH)
chain: EVQLVESGGGLVQAGGSLRLSCAASGGTFSFYGMGWFRQAPGKEQEFVADIRTSAGRTYYADSVKGRFTISRDNAKNTVYLQMNSLKPEDTAVYYCAAEMSGISGWDYWGQGTQVTVSSGGGGSGGGSEVQLVESGGGLVQAGGSLRLSCAASGGTFSFYGMGWFRQAPGKEQEFVADIRTSAGRTYYADSVKGRFTISRDNAKNTVYLQMNSLKPEDTAVYYCAAEMSGISGWDYWGQGTQVTVSS
notes: Single polypeptide expressed in E. coli; In the ELISA it stood as free protein in rat plasma (calibration standards and samples); also called free HHC MET
As for B1, the binding result is given as “binds”.
